Laboratory results reported in EP1242600B1 (ZymoGenetics, Inc., dated 2001).
Several values for one entry are separate records, joined by “and”; a condition that tells them apart may be missing. Equal values may be shown once.

Target: T1, CRF2-4/zcytor11 heterodimeric receptor on BaF3/CRF2-4/zcytor11 cells (human, UniProt Q08334 20-325, limits assumed)
T1 sequence 1: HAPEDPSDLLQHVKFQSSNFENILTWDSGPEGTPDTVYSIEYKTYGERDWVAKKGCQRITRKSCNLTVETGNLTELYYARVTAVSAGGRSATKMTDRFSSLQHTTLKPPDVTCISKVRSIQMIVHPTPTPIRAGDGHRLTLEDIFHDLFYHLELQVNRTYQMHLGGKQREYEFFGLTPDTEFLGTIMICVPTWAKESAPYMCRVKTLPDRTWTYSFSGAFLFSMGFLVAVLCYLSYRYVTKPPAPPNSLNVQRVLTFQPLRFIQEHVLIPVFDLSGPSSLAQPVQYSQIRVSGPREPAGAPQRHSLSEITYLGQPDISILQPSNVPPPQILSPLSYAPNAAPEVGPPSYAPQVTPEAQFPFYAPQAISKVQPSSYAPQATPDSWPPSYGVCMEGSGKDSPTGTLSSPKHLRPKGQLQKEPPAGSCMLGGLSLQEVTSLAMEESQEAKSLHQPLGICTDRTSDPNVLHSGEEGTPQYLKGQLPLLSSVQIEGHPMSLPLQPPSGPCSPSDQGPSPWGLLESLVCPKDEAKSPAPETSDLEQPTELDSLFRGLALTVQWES
T1 sequence 2: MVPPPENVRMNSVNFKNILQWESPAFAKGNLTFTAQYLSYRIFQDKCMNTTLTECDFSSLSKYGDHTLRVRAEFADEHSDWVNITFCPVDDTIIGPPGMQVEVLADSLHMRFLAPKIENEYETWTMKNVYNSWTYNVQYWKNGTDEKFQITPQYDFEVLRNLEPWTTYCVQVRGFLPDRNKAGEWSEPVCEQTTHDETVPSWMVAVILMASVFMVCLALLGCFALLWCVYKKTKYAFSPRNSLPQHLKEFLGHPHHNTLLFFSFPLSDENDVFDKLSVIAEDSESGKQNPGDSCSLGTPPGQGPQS
Assay: cell-based or functional assay

B1: ZCYTO18-CEE polypeptide purified from BHK 570 cells (ligand)
chain: APISSHCRLDKSNFQQPYITNRTFMLAKEASLADNNTDVRLIGEKLFHGVSMSERCYLMKQVLNFTLEEVLFPQSDRFQPYMQEVVPFLARLSNRLSTCHIEGDDLHIQRNVQKLKDTVKKLGESGEIKAIGELDLLFMSLRNACIEYMPME
Q: For B1, which “proliferation of BaF3/CRF2-4/zcytor11 cells (Alamar Blue)” value is on record?
A: ~15 fold over background and 2 fold induction
